Data taken from patent publication US20060029995A1, “Novel class of metacaspases” (Vlaams Interuniversitair Instituut Voor Biotechnologie VZW, priority 2003, published 2006).
*: point of attachment. AMC = Cc1cc(=O)oc2cc(N*)ccc12

What was measured:
Atmc9 = target: T1, Atmc9 (Arabidopsis thaliana, UniProt Q9FYE1); assay: kcat/Km of artificial substrates of Atmc9; type: biochemical; conditions: summary of Table 1
T1 construct: it indeed consists of amino acids 184 to 325 (calculated mass 15427 Da); made in house; host or cells: E. coli BL21(DE3), pDEST17, Ni-NTA purified
T1 sequence (Q9FYE1 1-183 limits assumed): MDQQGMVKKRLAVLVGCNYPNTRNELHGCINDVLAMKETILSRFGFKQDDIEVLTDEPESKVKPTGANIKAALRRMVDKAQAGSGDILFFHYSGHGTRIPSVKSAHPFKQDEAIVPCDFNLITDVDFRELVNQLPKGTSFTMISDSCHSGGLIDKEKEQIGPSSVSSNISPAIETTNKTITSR
T1 sequence (Q9FYE1 184-325 limits assumed): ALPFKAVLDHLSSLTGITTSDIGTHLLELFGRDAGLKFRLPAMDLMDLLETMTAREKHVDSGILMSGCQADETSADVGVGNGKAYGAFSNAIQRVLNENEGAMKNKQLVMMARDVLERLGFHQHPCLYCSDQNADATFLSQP
Procedure: The activity assay buffer used was composed of 50 mM MES pH 5.3, 10% (w/v) sucrose, 0.1% (w/v) 3-[(3-cholamidopropyl)dimethylammonio]-1-propanesulfonate [CHAPS], 10 mM DTT.
Release of free AMC was determined in a time course using a FLUOstar Optima fluorescence plate reader (BMB Lab Technologies, Offenburg, Del.). After total hydrolysis of the substrates, kcatlKm was calculated using the following formula: kcat/Km=kobsIEt, where kobs is determined as the decrease per second of the natural logarithm of substrate left, and Et is the concentration of enzyme active sites in the reaction.

metacaspase 3 = target: T2, metacaspase 3 (Arabidopsis thaliana, UniProt Q9FMG1); assay: Cleavage of fluorescent artificial substrates by purified metacaspase 3; type: biochemical; conditions: assay buffers of pHs ranging from 4.5 to 9.0 (MES 50 mM)
T2 construct: made in house; host or cells: bacterial production, pDEST17 (E. coli by the general method)
T2 sequence (Q9FMG1 1-362 R151K/L157V/V158I/Q177E): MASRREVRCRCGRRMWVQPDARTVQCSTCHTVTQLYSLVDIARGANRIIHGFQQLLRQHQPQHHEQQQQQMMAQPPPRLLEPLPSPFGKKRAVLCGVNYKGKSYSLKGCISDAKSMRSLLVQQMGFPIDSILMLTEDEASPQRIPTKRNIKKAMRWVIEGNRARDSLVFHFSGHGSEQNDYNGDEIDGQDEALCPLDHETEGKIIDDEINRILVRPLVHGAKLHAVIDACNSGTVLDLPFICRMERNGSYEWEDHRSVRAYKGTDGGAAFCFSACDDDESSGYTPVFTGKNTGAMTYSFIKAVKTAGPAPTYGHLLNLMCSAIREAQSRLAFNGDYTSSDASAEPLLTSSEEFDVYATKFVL
Text: (§1) For generation of the prodomain deletion mutant of Arabidopsis thaliana metacaspase 3 (MC3ΔN), residues 1 to 91 were replaced by a methionine residue by PCR, using 5′-[…]-3′ (SEQ ID NO:43) as the forward primer and 5′-[…]-3′ (SEQ ID NO:17) as the reverse primer. 5′ extensions used for Gateway™ (Invitrogen) cloning were 5′-[…]-3′ (SEQ ID NO:44) for forward primers and 5′-[…]-3′ (SEQ ID NO:45) for reverse primers. For bacterial production, the cDNA's were cloned into the bacterial expression vector pDEST17™ (Invitrogen), resulting in the amino-terminal translational addition of the following HIS6 tag-containing sequence: […] (SEQ ID NO:37).
(§2) Activity of purified metacaspase 3 was tested with different fluorescent substrates in assay buffers of pHs ranging from 4.5 to 9.0 (MES 50 mM). The substrates tested were: Ac-DEVD-AMC, Z-VAD-AMC, Boc-GRR-AMC, Boc-GKR-AMC, Z-FR-AMC and H-AFK-AMC. Only Z-FR-AMC was cut by metacaspase 3.

[1] = Activity of full length metacaspase 3 and prodomain deletion mutants in function of the pH, Z-FR-AMC as substrate; type: biochemical; design: unit not given here
Text: as §1, §2
A comparison was made between full length (MC3) and a prodomain deletion mutant of wild-type metacaspase 3 (MC3AN) or the C/A mutant (MC3ANC/A). Activity was significant only after addition of the kosmotrope sodium citrate (Na citr., 1 M), in absence of this agent the proteins were not active.
Table 3: Activit y of full length metacaspase 3, and the prodomain deletion mutant in function of the pH, using Z-FR-AMC as substrate. “No enz” was incubated at pH8, without addition of metacaspase.

[2] = target: T3, acetyl-Asp-Glu-Val-Asp-aminomethylcoumarin
T3 chain: DEVD

[3] = target: T4, t-butyloxycarbonyl-Gly-Lys-Arg-7-amido-4-methylcoumarin
T4 chain: GKR

[4] = target: T5, H-Ala-Phe-Lys-7-amido-4-methylcoumarin
T5 chain: AFK

[5] = target: T6, benzyloxycarbonyl-Phe-Arg-AMC
T6 chain: FR

[6] = target: T7, t-butyloxycarbonyl-Gly-Arg-Arg-7-amido-4-methylcoumarin
T7 chain: GRR

[7] = target: T8, benzyloxycarbonyl-Val-Ala-Asp-aminomethylcoumarin
T8 chain: VAD

[8] = Proteolytic activity of Atmc9 against Boc-GKR-AMC at different pH; type: biochemical
Procedure: Assays were performed in 150 μl with 400 ng of purified Atmc9 and 50 μM substrate in an optimized metacaspase 9 assay buffer (50 mM MES pH 5.3, 10% (w/v) sucrose, 0.1% (w/v) 3-[(3-cholamidopropyl)dimethylammonio]-1-propanesulfonate [CHAPS], 10 mM DTT). Time-dependent release of free amido-4-methylcoumarin (AMC) was measured on a Cytofluor 4000 fluorescence microplate reader (PerSeptive Biosystems, Farmingham, Md., USA).
To further characterize Atmc9 biochemically, the purified protein and its cysteine mutant were tested for their ability to cleave the synthetic fluorogenic oligopeptide substrate t-butyloxycarbonyl-GKR-7-amido-4-methylcoumarin (Boc-GKR-AMC) at different pH.

Z-VAD-fmk = target: T9, Z-VAD-fmk
T9 chain: VAD

[9] = target: T10, Soybean trypsin inhibitor, P01070
T10 chain: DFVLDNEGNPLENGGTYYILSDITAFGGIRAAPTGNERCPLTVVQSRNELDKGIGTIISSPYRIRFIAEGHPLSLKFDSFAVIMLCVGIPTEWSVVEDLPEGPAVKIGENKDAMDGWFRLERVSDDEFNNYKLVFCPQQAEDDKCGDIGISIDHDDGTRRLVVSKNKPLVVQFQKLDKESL

Z-YVAD-cmk = target: T11, Z-YVAD-cmk
T11 chain: YVAD

Z-DEVD-cmk = target: T12, Z-DEVD-cmk
T12 chain: DEVD

[10] = target: T13, Z-FK-2,4,6-trimethylbenzoyloxymethyl ketone
T13 chain: FK

H-Ala-Phe-Lys-7-amido-4-methylcoumarin (H-Ala-Phe-Lys-{AMC}; SMILES Cc1cc(=O)oc2cc(NC(=O)[C@H](CCCCN)NC(=O)[C@H](Cc3ccccc3)NC(=O)[C@H](C)N)ccc12) [H-AFK-AMC]
quality as substrate for Atmc9 (Atmc9): less efficiently cleaved
cleavage by metacaspase 3 (metacaspase 3): No activity was detected

B1: N-terminally HIS6-tagged Atmc3 (bacterially produced) (protein)
chain: MSYYHHHHHHLESTSLYKKAGSTMASRREVRCRCGRRMWVQPDARTVQCSTCHTVTQLYSLVDIARGANRIIHGFQQLLRQHQPQHHEQQQQQMMAQPPPRLLEPLPSPFGKKRAVLCGVNYKGKSYSLKGCISDAKSMRSLLVQQMGFPIDSILMLTEDEASPQRIPTKRNIRKAMRWLVEGNRARDSLVFHFSGHGSQQNDYNGDEIDGQDEALCPLDHETEGKIIDDEINRILVRPLVHGAKLHAVIDACNSGTVLDLPFICRMERNGSYEWEDHRSVRAYKGTDGGAAFCFSACDDDESSGYTPVFTGKNTGAMTYSFIKAVKTAGPAPTYGHLLNLMCSAIREAQSRLAFNGDYTSSDASAEPLLTSSEEFDVYATKFVL
Activity ([1]; pH 4.5, with sodium citrate (1 M)): 13.37
Activity ([1]; pH 5, with sodium citrate (1 M)): 8.05
Activity ([1]; pH 5.5, with sodium citrate (1 M)): 5.48
Activity ([1]; pH 6, with sodium citrate (1 M)): 5.64
Activity ([1]; pH 6.5, with sodium citrate (1 M)): 29.58
Activity ([1]; pH 7, with sodium citrate (1 M)): 36.63
Activity ([1]; pH 7.5, with sodium citrate (1 M)): 41.61
Activity ([1]; pH 8, with sodium citrate (1 M)): 26.11
Activity ([1]; pH 8.5, with sodium citrate (1 M)): 17.93
Activity ([1]; pH 9, with sodium citrate (1 M)): −2.57
cleavage of fluorescent substrate, pH 4.5 to 9.0 [2]: No activity was detected using the other substrates.
cleavage of fluorescent substrate, pH 4.5 to 9.0 [3]: No activity was detected using the other substrates.
cleavage of fluorescent substrate, pH 4.5 to 9.0 [4]: No activity was detected using the other substrates.
cleavage of fluorescent substrate, pH 4.5 to 9.0 [5]: Only Z-FR-AMC was cut by metacaspase 3.
cleavage of fluorescent substrate, pH 4.5 to 9.0 [6]: No activity was detected using the other substrates.
cleavage of fluorescent substrate, pH 4.5 to 9.0 [7]: No activity was detected using the other substrates.

B2: Atmc9: purified recombinant HIS-tagged Arabidopsis thaliana metacaspase 9, type II (protein, listed as Arabidopsis thaliana)
chain: HHHHHLESTSLYKKAGSTMDQQGMVKKRLAVLVGCNYPNTRNELHGCINDVLAMKETILSRFGFKQDDIEVLTDEPESKVKPTGANIKAALRRMVDKAQAGSGDILFFHYSGHGTRIPSVKSAHPFKQDEAIVPCDFNLITDVDFRELVNQLPKGTSFTMISDSCHSGGLIDKEKEQIGPSSVSSNISPAIETTNKTITSRALPFKAVLDHLSSLTGITTSDIGTHLLELFGRDAGLKFRLPAMDLMDLLETMTAREKHVDSGILMSGCQADETSADVGVGNGKAYGAFSNAIQRVLNENEGAMKNKQLVMMARDVLERLGFHQHPCLYCSDQNADATFLSQP
modifications: N-terminal His6 tag with linker; Atmc9
notes: purified recombinant HIS-tagged Arabidopsis thaliana metacaspase 9, type II
activity at the physiological pH of the cytoplasm ([8]; pH 7.0-7.5): completely abolished
GKR-ase activity ([8]; purified protein, Boc-GKR-AMC at different pH, FIG. 7): clearly has GKR-ase activity

B3: N-terminally HIS6-tagged Atmc9 (bacterially produced) (protein)
chain: MSYYHHHHHHLESTSLYKKAGSTMDQQGMVKKRLAVLVGCNYPNTRNELHGCINDVLAMKETILSRFGFKQDDIEVLTDEPESKVKPTGANIKAALRRMVDKAQAGSGDILFFHYSGHGTRIPSVKSAHPFKQDEAIVPCDFNLITDVDFRELVNQLPKGTSFTMISDSCHSGGLIDKEKEQIGPSSVSSNISPAIETTNKTITSRALPFKAVLDHLSSLTGITTSDIGTHLLELFGRDAGLKFRLPAMDLMDLLETMTAREKHVDSGILMSGCQADETSADVGVGNGKAYGAFSNAIQRVLNENEGAMKNKQLVMMARDVLERLGFHQHPCLYCSDQNADATFLSQP
Activity (%) of Atmc9 with Boc-GKR-AMC as substrate, reagent at 100 µM (Z-VAD-fmk): 87%
Activity (%) of Atmc9 with Boc-GKR-AMC as substrate, reagent at 100 µg/ml [9]: 73%
kcat/Km [3]: 1900 M⁻¹ s⁻¹
kcat/Km [4]: 750 M⁻¹ s⁻¹
Activity (%) of Atmc9 with Boc-GKR-AMC as substrate, reagent at 100 µM (Z-YVAD-cmk): 100%
Activity (%) of Atmc9 with Boc-GKR-AMC as substrate, reagent at 100 µM (Z-DEVD-cmk): 94%
Activity (%) of Atmc9 with Boc-GKR-AMC as substrate, reagent at 1 µM [10]: 33%
kcat/Km [5]: 2900 M⁻¹ s⁻¹
kcat/Km [6]: 2900 M⁻¹ s⁻¹
